Data on three molecules can be found in PMC5576923 (eLife, 2017).

The target in test [1] is T1, β-Arrestin1 (human (endogenous in Caco-2 and HCT116), UniProt P49407 1-418).
T1 construct: β-Arrestin1, endogenous in human colorectal cell lines Caco-2 and HCT116 and their PTEN-deficient subclones; Precipitated with anti-β-Arrestin1 (bait of the co-IPs); detected with mouse anti-β-Arrestin1 in the PLA; also called Beta-Arrestin1; source: endogenous, Caco-2, Caco-2 ShPTEN, HCT116 and PTEN-/- HCT116 cells (lysate, membrane fraction, or fixed cells)
Nature of the test: proximity ligation; Duolink II red kit on fixed, permeabilised cells; PTEN-/- HCT116 cells transfected 24 hr with GFP-tagged EV or PTEN constructs, HCT116 cells as positive control; signal as AI units, n = 35 cells per condition in triplicate. As to conditions: partners not purified.

Test [2] has as its target T1, β-Arrestin1. Nature of the test: cell-based or functional assay.

T1 sequence (P49407 whole entry): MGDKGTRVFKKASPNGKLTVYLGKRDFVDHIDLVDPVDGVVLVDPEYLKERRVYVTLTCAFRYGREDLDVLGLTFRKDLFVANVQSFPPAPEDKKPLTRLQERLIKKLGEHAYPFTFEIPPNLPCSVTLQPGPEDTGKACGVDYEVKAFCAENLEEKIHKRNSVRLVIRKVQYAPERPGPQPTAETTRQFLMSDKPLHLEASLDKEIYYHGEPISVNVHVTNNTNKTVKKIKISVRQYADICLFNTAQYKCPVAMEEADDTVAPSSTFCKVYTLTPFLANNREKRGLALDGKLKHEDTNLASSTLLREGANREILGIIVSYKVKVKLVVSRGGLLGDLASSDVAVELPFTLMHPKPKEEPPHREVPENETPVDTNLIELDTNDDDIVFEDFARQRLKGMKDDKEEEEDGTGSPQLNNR

B1: GFP-labeled PTEN C124S-T383A (natural protein, UniProt P60484 1-403, looked up)
chain: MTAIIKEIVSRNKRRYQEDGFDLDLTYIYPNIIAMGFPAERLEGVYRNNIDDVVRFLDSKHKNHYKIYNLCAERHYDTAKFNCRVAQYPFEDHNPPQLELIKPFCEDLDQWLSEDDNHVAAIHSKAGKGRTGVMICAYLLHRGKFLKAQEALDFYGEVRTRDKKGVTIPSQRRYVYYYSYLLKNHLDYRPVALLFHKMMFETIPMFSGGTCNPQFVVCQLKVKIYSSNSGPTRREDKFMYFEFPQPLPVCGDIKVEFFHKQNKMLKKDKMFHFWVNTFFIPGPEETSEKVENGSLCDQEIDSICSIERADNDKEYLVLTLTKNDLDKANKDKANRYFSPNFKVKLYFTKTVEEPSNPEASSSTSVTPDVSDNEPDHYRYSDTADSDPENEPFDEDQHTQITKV
notes: also called CS-T383A; source: PTEN-/- HCT116 cells, transfected, in fixed cells
For the molecule B1, the “PLA interaction AI” value with β-Arrestin1 [1] amounted to 69.8 AI units.

B2: PTEN (phosphatase and tensin homolog) (natural protein)
chain: not shown
notes: source: endogenous, HCT116 cells (fixed cells)
For B2, the “PLA interaction AI” value with β-Arrestin1 [1] stood at 101 AI units.

B3: ARHGAP21 (natural protein, human (endogenous in Caco-2 and HCT116), UniProt Q5T5U3 1-1958, looked up)
chain: MMATRRTGLSEGDGDKLKACEVSKNKDGKEQSETVSLSEDETFSWPGPKTVTLKRTSQGFGFTLRHFIVYPPESAIQFSYKDEENGNRGGKQRNRLEPMDTIFVKQVKEGGPAFEAGLCTGDRIIKVNGESVIGKTYSQVIALIQNSDTTLELSVMPKDEDILQVLQFTKDVTALAYSQDAYLKGNEAYSGNARNIPEPPPICYPWLPSAPSAMAQPVEISPPDSSLSKQQTSTPVLTQPGRAYRMEIQVPPSPTDVAKSNTAVCVCNESVRTVIVPSEKVVDLLSNRNNHTGPSHRTEEVRYGVSEQTSLKTVSRTTSPPLSIPTTHLIHQPAGSRSLEPSGILLKSGNYSGHSDGISSSRSQAVEAPSVSVNHYSPNSHQHIDWKNYKTYKEYIDNRRLHIGCRTIQERLDSLRAASQSTTDYNQVVPNRTTLQGRRRSTSHDRVPQSVQIRQRSVSQERLEDSVLMKYCPRSASQGALTSPSVSFSNHRTRSWDYIEGQDETLENVNSGTPIPDSNGEKKQTYKWSGFTEQDDRRGICERPRQQEIHKSFRGSNFTVAPSVVNSDNRRMSGRGVGSVSQFKKIPPDLKTLQSNRNFQTTCGMSLPRGISQDRSPLVKVRSNSLKAPSTHVTKPSFSQKSFVSIKDQRPVNHLHQNSLLNQQTWVRTDSAPDQQVETGKSPSLSGASAKPAPQSSENAGTSDLELPVSQRNQDLSLQEAETEQSDTLDNKEAVILREKPPSGRQTPQPLRHQSYILAVNDQETGSDTTCWLPNDARREVHIKRMEERKASSTSPPGDSLASIPFIDEPTSPSIDHDIAHIPASAVISASTSQVPSIATVPPCLTTSAPLIRRQLSHDHESVGPPSLDAQPNSKTERSKSYDEGLDDYREDAKLSFKHVSSLKGIKIADSQKSSEDSGSRKDSSSEVFSDAAKEGWLHFRPLVTDKGKRVGGSIRPWKQMYVVLRGHSLYLYKDKREQTTPSEEEQPISVNACLIDISYSETKRKNVFRLTTSDCECLFQAEDRDDMLAWIKTIQESSNLNEEDTGVTNRDLISRRIKEYNNLMSKAEQLPKTPRQSLSIRQTLLGAKSEPKTQSPHSPKEESERKLLSKDDTSPPKDKGTWRKGIPSIMRKTFEKKPTATGTFGVRLDDCPPAHTNRYIPLIVDICCKLVEERGLEYTGIYRVPGNNAAISSMQEELNKGMADIDIQDDKWRDLNVISSLLKSFFRKLPEPLFTNDKYADFIEANRKEDPLDRLKTLKRLIHDLPEHHYETLKFLSAHLKTVAENSEKNKMEPRNLAIVFGPTLVRTSEDNMTHMVTHMPDQYKIVETLIQHHDWFFTEEGAEEPLTTVQEESTVDSQPVPNIDHLLTNIGRTGVSPGDVSDSATSDSTKSKGSWGSGKDQYSRELLVSSIFAAASRKRKKPKEKAQPSSSEDELDNVFFKKENVEQCHNDTKEESKKESETLGRKQKIIIAKENSTRKDPSTTKDEKISLGKESTPSEEPSPPHNSKHNKSPTLSCRFAILKESPRSLLAQKSSHLEETGSDSGTLLSTSSQASLARFSMKKSTSPETKHSEFLANVSTITSDYSTTSSATYLTSLDSSRLSPEVQSVAESKGDEADDERSELISEGRPVETDSESEFPVFPTALTSERLFRGKLQEVTKSSRRNSEGSELSCTEGSLTSSLDSRRQLFSSHKLIECDTLSRKKSARFKSDSGSLGDAKNEKEAPSLTKVFDVMKKGKSTGSLLTPTRGESEKQEPTWKTKIADRLKLRPRAPADDMFGVGNHKVNAETAKRKSIRRRHTLGGHRDATEISVLNFWKVHEQSGERESELSAVNRLKPKCSAQDLSISDWLARERLRTSTSDLSRGEIGDPQTENPSTREIATTDTPLSLHCNTGSSSSTLASTNRPLLSIPPQSPDQINGESFQNVSKNASSAANAQPHKLSETPGSKAEFHPCL
notes: also called ARHGA21; source: endogenous, Caco-2, Caco-2 ShPTEN, HCT116 and PTEN-/- HCT116 cells (lysate, membrane fraction, or fixed cells)
Consider B3, for which the “PLA interaction AI” value with β-Arrestin1 [1] amounted to 123 AI units. In the test with β-Arrestin1 [2], the “Cdc42-GTP (ADU, fold) in HCT116 cells after pep24 vs control peptide” value was 0.44 fold change and the “Cdc42-GTP (fold change, ADU) in Caco-2 cells after 10 μM pep24 vs control peptide” value was determined as 0.48 fold change.
